We go through five molecules from US20060281078, “Human fast-1 gene” (published 2006).

One data set addresses T1, hFAST-1 (Homo sapiens) (UniProt O75593).
T1 sequence: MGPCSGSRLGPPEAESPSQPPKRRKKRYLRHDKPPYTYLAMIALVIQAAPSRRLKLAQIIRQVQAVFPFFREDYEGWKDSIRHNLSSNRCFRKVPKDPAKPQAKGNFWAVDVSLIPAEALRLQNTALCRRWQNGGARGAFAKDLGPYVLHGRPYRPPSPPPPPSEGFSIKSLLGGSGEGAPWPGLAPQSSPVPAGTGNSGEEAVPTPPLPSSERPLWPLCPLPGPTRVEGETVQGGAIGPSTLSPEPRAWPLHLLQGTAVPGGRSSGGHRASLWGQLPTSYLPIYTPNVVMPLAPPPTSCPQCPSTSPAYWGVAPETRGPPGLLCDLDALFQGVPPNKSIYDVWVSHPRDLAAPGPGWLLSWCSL
The data set is described as follows: cell_activity. The following applies: MvLu1 cells; TGF-beta dependent luciferase activation.

For data set [1], the target named is T2, hFAST-1 full length (FAST-FL) (Homo sapiens, UniProt O75593 SEQ:1-365).
T2 sequence: T1 sequence
Nature of the data set: EMSA; two consensus positions altered. Particulars: tags: GST N-terminal fusion (pGEX2TK); label: 32P. As for the experimental part:
(§1) Derivation of clones and EMSA were performed as described in Example 7. Mock selected clones were used for comparison (“C” lanes). The positions of free probe and hFAST-1 bound probe (“shift”) are indicated. FIG. 4B provides a sequence summary of clones that bound to hFAST-1. The sequences of the relevant segment of 17 hFAST-1-binding clones were determined and the fractions of clones containing the nucleotides at the indicated positions relative to the consensus are shown. […] Wild-type (FBE) or mutant (FBE*) oligonucleotides were incubated with 0.5-2.0 μg of GST fusion proteins containing full-length hFAST-1 (FAST-FL) or only its forkhead domain (FAST-FH). GST fusion proteins containing the MH1 or MH2 domains of Smad2 (S-N and S-C, respectively; Zawel et al., 1998) were used as controls. The FBE* oligonucleotide contained the sequence TCTGTATC in place of the consensus TGTGTATT but was otherwise identical to FBE. […] EMSA was performed with (+) or without (−) 1 μg of GST fusion protein containing full length FAST-1 (“FAST-FL”). The sequence of the 50 bp ARE oligonucleotide differed by only one bp from ARE*.
(§2) Sixty bp probes corresponding to single clones were generated for EMSA by colony PCR using the following ³²P-labeled primers: 5′-[…]-3′ (SEQ ID NO:14) and 5′-[…]-3′ (SEQ ID NO:15). […]

For data set [2], the target named is T2, hFAST-1 full length (FAST-FL). The data set is described as follows: EMSA; 1 ug GST fusion. Particulars: tags: GST N-terminal fusion (pGEX2TK); label: 32P. On the procedure: as §1, §2
Data set [3] has the same target. Nature of the data set: EMSA; single base substitution in FBE. The following applies: tags: GST N-terminal fusion (pGEX2TK); label: 32P. On the procedure: as §1, §2
The target is the same in data set [4]. Nature of the data set: EMSA; about 0.4 uM protein, 0.5 ng DNA. Particulars: tags: GST N-terminal fusion (pGEX2TK); label: 32P. As for the experimental part:
as §1, §2

In a further data set the target is Smad2 MH1 domain (S-N) (Homo sapiens, UniProt Q15796 Q15796:1-182). Nature of the data set: EMSA; specificity control. The following applies: tags: GST fusion; label: 32P. On the procedure: as §1, §2
Chain of Smad2 MH1 domain (S-N) (Q15796 1-182, one chain of several): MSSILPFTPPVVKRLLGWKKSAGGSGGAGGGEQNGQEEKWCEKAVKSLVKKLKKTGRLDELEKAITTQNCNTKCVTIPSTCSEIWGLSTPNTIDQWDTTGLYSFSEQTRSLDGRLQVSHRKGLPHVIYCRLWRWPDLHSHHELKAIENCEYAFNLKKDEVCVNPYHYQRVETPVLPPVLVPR
In a further data set the target is Smad2 MH2 domain (S-C) (Homo sapiens, UniProt Q15796 SEQ:193-477). The data set is described as follows: EMSA; specificity control. The following applies: tags: GST fusion; label: 32P. As for the experimental part:
as §1, §2

Where a chain is given by its changes, count along the chain named. Some results are limits rather than exact numbers.

Chain of Smad2 MH2 domain (S-C) (Q15796 183-467): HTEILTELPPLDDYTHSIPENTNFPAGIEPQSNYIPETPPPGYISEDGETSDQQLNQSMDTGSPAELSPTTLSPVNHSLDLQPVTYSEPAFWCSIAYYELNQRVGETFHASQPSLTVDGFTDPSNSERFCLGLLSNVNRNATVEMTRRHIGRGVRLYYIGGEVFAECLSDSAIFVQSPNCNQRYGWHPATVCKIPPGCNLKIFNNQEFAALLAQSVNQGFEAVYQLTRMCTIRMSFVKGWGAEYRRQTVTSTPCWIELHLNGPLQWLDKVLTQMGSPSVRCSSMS

Regarding “AR3-lux reporter (three copies of Mix.2 ARE)”, the activity with hFAST-1 (Homo sapiens) is above 30 fold.

B1: FBE* (dsDNA)
DNA 1: CGGATTCTGTATCGGCTGTAC
DNA 2: GTACAGCCGATACAGAATCCG
As for B1, in data set [1], the binding result was “no binding”.

B2: ARE (Mix.2) (dsDNA)
DNA 1: TATCTGCTGCCCTAAAATGTGTATTCCATGGAAATGTCTGCCCTTCTCTCCGTAC
DNA 2: GTACGGAGAGAAGGGCAGACATTTCCATGGAATACACATTTTAGGGCAGCAGATA
B2: in data set [2], the binding result is recorded as “binds”.

B3: ARE mutant (dsDNA)
DNA 1: B2 DNA 1 with G19C
DNA 2: B2 DNA 2 with C37G
B3: the binding result in data set [3] is given as “no binding”.

B4: FBE (dsDNA)
DNA 1: CGGATTGTGTATTGGCTGTAC
DNA 2: GTACAGCCAATACACAATCCG
Regarding B4, the binding result in data set [4] is recorded as “binds”; with Smad2 MH1 domain (S-N), “no binding”; in the data set with Smad2 MH2 domain (S-C), “no binding”.
